Test results as given in patent US20230357348A1 (AstraZeneca / MedImmune, published 2023).
Starred links: 1 amine or outer side, 2 acyl side, 3 side chain; linkers in the order of their positions; H or OH if unused. Non-standard residues stand in square brackets, D forms with d. Groups on a side chain read outwards from the residue. No end group written: not given here. *: point of attachment. PEG12 = NCCOCCOCCOCCOCCOCCOCCOCCOCCOCCOCCOCCOCCC(=O)O; C18 diacid = O=C(O)CCCCCCCCCCCCCCCCC(=O)*; PEG8 = NCCOCCOCCOCCOCCOCCOCCOCCOCCC(=O)O; Dip = N[C@H](C(=O)O)C(c1ccccc1)c1ccccc1; γGlu = O=C(O)[C@H](CCC(=O)[*:2])N[*:1]; Stearoyl = CCCCCCCCCCCCCCCCCC(=O)*; Palmitoyl = CCCCCCCCCCCCCCCC(=O)*; αMeF = C[C@](N)(Cc1ccccc1)C(=O)O; (PEG)2 = polyethylene glycol 2; PEG4 = NCCOCCOCCOCCOCCC(=O)O; Dodecyl = CCCCCCCCCCCC*; AEEA = NCCOCCOCC(=O)O; Aib = CC(C)(N)C(=O)O

Assays:
[1] = molecular target: human GLP-1 receptor (hGLP-1R) (human, UniProt P43220 24-463); assay: cell-based or functional assay
[2] = molecular target: human glucagon receptor (hGCGR) (human, UniProt P47871 26-477); assay: cell-based or functional assay
Sequence of human glucagon receptor (hGCGR) (P47871 26-477): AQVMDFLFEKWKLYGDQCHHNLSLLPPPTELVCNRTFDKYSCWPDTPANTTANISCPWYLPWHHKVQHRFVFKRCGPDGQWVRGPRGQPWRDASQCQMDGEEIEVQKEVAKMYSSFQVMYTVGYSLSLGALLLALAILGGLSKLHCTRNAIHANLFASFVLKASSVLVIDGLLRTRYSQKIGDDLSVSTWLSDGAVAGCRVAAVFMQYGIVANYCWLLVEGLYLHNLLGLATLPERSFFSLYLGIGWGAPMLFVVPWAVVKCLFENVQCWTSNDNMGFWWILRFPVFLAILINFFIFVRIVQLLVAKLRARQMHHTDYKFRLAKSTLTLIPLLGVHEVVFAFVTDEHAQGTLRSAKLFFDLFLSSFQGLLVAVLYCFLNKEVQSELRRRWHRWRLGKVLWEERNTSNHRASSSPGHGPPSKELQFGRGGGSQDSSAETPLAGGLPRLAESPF

Row | Binder | hGLP-1R EC50 (pM) [1] [pM] | hGluc-R EC50 (pM) [2] [pM]
1 | HSQGS[αMeF]TSDVSK[Dip]LDSK([(PEG)2-(PEG)2-γGlu-γGlu-Stearoyl])AAQD[αMeF]VQ[Dip]LEA-NH2 [Peptide 55] | 18.8 | 19.1
2 | HSQGS[αMeF]TSDVSK[Dip]LDSK([(PEG)2-(PEG)2-γGlu-γGlu-Dodecyl])AAQD[αMeF]VE[Aib]IINT-NH2 [Peptide 62] | 10.1 | 15.2
3 | HSQGS[αMeF]TSDVSK[Dip]LDSK([γGlu-γGlu-(PEG)2-(PEG)2-Stearoyl])AAQD[αMeF]VE[Aib]IINT-NH2 [Peptide 59] | 6.18 | 28.4
4 | HSQGS[αMeF]TSDVSK[Dip]LDSK([γGlu-(PEG)2-γGlu-(PEG)2-Stearoyl])AAQD[αMeF]VE[Aib]IINT-NH2 [Peptide 60] | 5.16 | 21.1
5 | H[Aib]QGS[αMeF]TSDVSK[αMeF]LDSK([PEG4-γGlu-γGlu-Palmitoyl])AAQD[αMeF]VE[Aib]LEAGG-NH2 (N-terminus assumed; SMILES CCCCCCCCCCCCCCCC(=O)N[C@@H](CCC(=O)N[C@@H](CCC(=O)NCCOCCOCCOCCOCCC(=O)NCCCC[C@H](NC(=O)[C@H](CO)NC(=O)[C@H](CC(=O)O)NC(=O)[C@H](CC(C)C)NC(=O)[C@](C)(Cc1ccccc1)NC(=O)[C@H](CCCCN)NC(=O)[C@H](CO)NC(=O)[C@@H](NC(=O)[C@H](CC(=O)O)NC(=O)[C@H](CO)NC(=O)[C@@H](NC(=O)[C@](C)(Cc1ccccc1)NC(=O)[C@H](CO)NC(=O)CNC(=O)[C@H](CCC(N)=O)NC(=O)C(C)(C)NC(=O)[C@@H](N)Cc1c[nH]cn1)[C@@H](C)O)C(C)C)C(=O)N[C@@H](C)C(=O)N[C@@H](C)C(=O)N[C@@H](CCC(N)=O)C(=O)N[C@@H](CC(=O)O)C(=O)N[C@@](C)(Cc1ccccc1)C(=O)N[C@H](C(=O)N[C@@H](CCC(=O)O)C(=O)NC(C)(C)C(=O)N[C@@H](CC(C)C)C(=O)N[C@@H](CCC(=O)O)C(=O)N[C@@H](C)C(=O)NCC(=O)NCC(N)=O)C(C)C)C(=O)O)C(=O)O) [Peptide 72] | 3.42 | 73.7
6 | HSQGS[αMeF]TSDVSK[Dip]LDSK([PEG8-γGlu-γGlu-Stearoyl])AAQD[αMeF]VE[Aib]IINT-NH2 (N-terminus assumed; SMILES CCCCCCCCCCCCCCCCCC(=O)N[C@@H](CCC(=O)N[C@@H](CCC(=O)NCCOCCOCCOCCOCCOCCOCCOCCOCCC(=O)NCCCC[C@H](NC(=O)[C@H](CO)NC(=O)[C@H](CC(=O)O)NC(=O)[C@H](CC(C)C)NC(=O)[C@@H](NC(=O)[C@H](CCCCN)NC(=O)[C@H](CO)NC(=O)[C@@H](NC(=O)[C@H](CC(=O)O)NC(=O)[C@H](CO)NC(=O)[C@@H](NC(=O)[C@](C)(Cc1ccccc1)NC(=O)[C@H](CO)NC(=O)CNC(=O)[C@H](CCC(N)=O)NC(=O)[C@H](CO)NC(=O)[C@@H](N)Cc1c[nH]cn1)[C@@H](C)O)C(C)C)C(c1ccccc1)c1ccccc1)C(=O)N[C@@H](C)C(=O)N[C@@H](C)C(=O)N[C@@H](CCC(N)=O)C(=O)N[C@@H](CC(=O)O)C(=O)N[C@@](C)(Cc1ccccc1)C(=O)N[C@H](C(=O)N[C@@H](CCC(=O)O)C(=O)NC(C)(C)C(=O)N[C@H](C(=O)N[C@H](C(=O)N[C@@H](CC(N)=O)C(=O)N[C@H](C(N)=O)[C@@H](C)O)[C@@H](C)CC)[C@@H](C)CC)C(C)C)C(=O)O)C(=O)O) [Peptide 57] | 9.09 | 16.9
7 | HSQGS[αMeF]TSDVSK[Dip]LDSKAAQD[αMeF]VE[Aib]IINT-NH2 (not fully specified (residue 17)) [Peptide 65] | 1230 | 2060
8 | H[Aib]HGS[αMeF]TSDVSK[αMeF]LDSK([AEEA-AEEA-γGlu-C18 diacid])AAQD[αMeF]VEWIAN-NH2 (N-terminus assumed; SMILES CC[C@H](C)[C@H](NC(=O)[C@H](Cc1c[nH]c2ccccc12)NC(=O)[C@H](CCC(=O)O)NC(=O)[C@@H](NC(=O)[C@](C)(Cc1ccccc1)NC(=O)[C@H](CC(=O)O)NC(=O)[C@H](CCC(N)=O)NC(=O)[C@H](C)NC(=O)[C@H](C)NC(=O)[C@H](CCCCNC(=O)COCCOCCNC(=O)COCCOCCNC(=O)CC[C@H](NC(=O)CCCCCCCCCCCCCCCCC(=O)O)C(=O)O)NC(=O)[C@H](CO)NC(=O)[C@H](CC(=O)O)NC(=O)[C@H](CC(C)C)NC(=O)[C@](C)(Cc1ccccc1)NC(=O)[C@H](CCCCN)NC(=O)[C@H](CO)NC(=O)[C@@H](NC(=O)[C@H](CC(=O)O)NC(=O)[C@H](CO)NC(=O)[C@@H](NC(=O)[C@](C)(Cc1ccccc1)NC(=O)[C@H](CO)NC(=O)CNC(=O)[C@H](Cc1c[nH]cn1)NC(=O)C(C)(C)NC(=O)[C@@H](N)Cc1c[nH]cn1)[C@@H](C)O)C(C)C)C(C)C)C(=O)N[C@@H](C)C(=O)N[C@@H](CC(N)=O)C(N)=O) [Peptide 6] | 568 | 516
9 | H[Aib]HGS[αMeF]TSDVSK[αMeF]LDSK([γGlu-C18 diacid])AAQD[αMeF]VEWIANT-NH2 (N-terminus assumed; SMILES CC[C@H](C)[C@H](NC(=O)[C@H](Cc1c[nH]c2ccccc12)NC(=O)[C@H](CCC(=O)O)NC(=O)[C@@H](NC(=O)[C@](C)(Cc1ccccc1)NC(=O)[C@H](CC(=O)O)NC(=O)[C@H](CCC(N)=O)NC(=O)[C@H](C)NC(=O)[C@H](C)NC(=O)[C@H](CCCCNC(=O)CC[C@H](NC(=O)CCCCCCCCCCCCCCCCC(=O)O)C(=O)O)NC(=O)[C@H](CO)NC(=O)[C@H](CC(=O)O)NC(=O)[C@H](CC(C)C)NC(=O)[C@](C)(Cc1ccccc1)NC(=O)[C@H](CCCCN)NC(=O)[C@H](CO)NC(=O)[C@@H](NC(=O)[C@H](CC(=O)O)NC(=O)[C@H](CO)NC(=O)[C@@H](NC(=O)[C@](C)(Cc1ccccc1)NC(=O)[C@H](CO)NC(=O)CNC(=O)[C@H](Cc1c[nH]cn1)NC(=O)C(C)(C)NC(=O)[C@@H](N)Cc1c[nH]cn1)[C@@H](C)O)C(C)C)C(C)C)C(=O)N[C@@H](C)C(=O)N[C@@H](CC(N)=O)C(=O)N[C@H](C(N)=O)[C@@H](C)O) [Peptide 7] | 84.6 | 30.7
10 | H[Aib]QGS[αMeF]TSDVSK[Dip]LDSK([(PEG)2-(PEG)2-γGlu-Palmitoyl])AAQD[αMeF]VQ[Aib]IAN-NH2 [Peptide 67] | 2.43 | 9.49
11 | HSQGS[αMeF]TSDVSK[Dip]LDSK([(PEG)2-(PEG)2-γGlu-γGlu-Myristyl])AAQD[αMeF]VE[Aib]IINT-NH2 [Peptide 63] | 3.14 | 2.49
12 | HSQGS[αMeF]TSDVSK[Dip]LDSK([(PEG)2-(PEG)2-γGlu-γGlu-Palmitoyl])AAQD[αMeF]VE[Aib]IINT-NH2 [Peptide 64] | 2.57 | 3.06
13 | HSQGS[αMeF]TSDVSK[Dip]LDSK([PEG12-γGlu-γGlu-Stearoyl])AAQD[αMeF]VE[Aib]IINT-NH2 (N-terminus assumed; SMILES CCCCCCCCCCCCCCCCCC(=O)N[C@@H](CCC(=O)N[C@@H](CCC(=O)NCCOCCOCCOCCOCCOCCOCCOCCOCCOCCOCCOCCOCCC(=O)NCCCC[C@H](NC(=O)[C@H](CO)NC(=O)[C@H](CC(=O)O)NC(=O)[C@H](CC(C)C)NC(=O)[C@@H](NC(=O)[C@H](CCCCN)NC(=O)[C@H](CO)NC(=O)[C@@H](NC(=O)[C@H](CC(=O)O)NC(=O)[C@H](CO)NC(=O)[C@@H](NC(=O)[C@](C)(Cc1ccccc1)NC(=O)[C@H](CO)NC(=O)CNC(=O)[C@H](CCC(N)=O)NC(=O)[C@H](CO)NC(=O)[C@@H](N)Cc1c[nH]cn1)[C@@H](C)O)C(C)C)C(c1ccccc1)c1ccccc1)C(=O)N[C@@H](C)C(=O)N[C@@H](C)C(=O)N[C@@H](CCC(N)=O)C(=O)N[C@@H](CC(=O)O)C(=O)N[C@@](C)(Cc1ccccc1)C(=O)N[C@H](C(=O)N[C@@H](CCC(=O)O)C(=O)NC(C)(C)C(=O)N[C@H](C(=O)N[C@H](C(=O)N[C@@H](CC(N)=O)C(=O)N[C@H](C(N)=O)[C@@H](C)O)[C@@H](C)CC)[C@@H](C)CC)C(C)C)C(=O)O)C(=O)O) [Peptide 58] | 3.9 | 11.3
14 | HSQGS[αMeF]TSDVSK[Dip]LDSK([(PEG)2-γGlu-(PEG)2-γGlu-Stearoyl])AAQD[αMeF]VE[Aib]IINT-NH2 [Peptide 61] | 4.12 | 9.55
15 | HSQGS[αMeF]TSDVSK[Dip]LDSK([PEG4-γGlu-γGlu-Stearoyl])AAQD[αMeF]VE[Aib]IINT-NH2 (N-terminus assumed; SMILES CCCCCCCCCCCCCCCCCC(=O)N[C@@H](CCC(=O)N[C@@H](CCC(=O)NCCOCCOCCOCCOCCC(=O)NCCCC[C@H](NC(=O)[C@H](CO)NC(=O)[C@H](CC(=O)O)NC(=O)[C@H](CC(C)C)NC(=O)[C@@H](NC(=O)[C@H](CCCCN)NC(=O)[C@H](CO)NC(=O)[C@@H](NC(=O)[C@H](CC(=O)O)NC(=O)[C@H](CO)NC(=O)[C@@H](NC(=O)[C@](C)(Cc1ccccc1)NC(=O)[C@H](CO)NC(=O)CNC(=O)[C@H](CCC(N)=O)NC(=O)[C@H](CO)NC(=O)[C@@H](N)Cc1c[nH]cn1)[C@@H](C)O)C(C)C)C(c1ccccc1)c1ccccc1)C(=O)N[C@@H](C)C(=O)N[C@@H](C)C(=O)N[C@@H](CCC(N)=O)C(=O)N[C@@H](CC(=O)O)C(=O)N[C@@](C)(Cc1ccccc1)C(=O)N[C@H](C(=O)N[C@@H](CCC(=O)O)C(=O)NC(C)(C)C(=O)N[C@H](C(=O)N[C@H](C(=O)N[C@@H](CC(N)=O)C(=O)N[C@H](C(N)=O)[C@@H](C)O)[C@@H](C)CC)[C@@H](C)CC)C(C)C)C(=O)O)C(=O)O) [Peptide 56] | 4.86 | 10.9
